Laboratory results taken from US20030199022, “Tamoxifen and 4-hydroxytamoxifen-activated system for regulated production of proteins in eukaryotic cells” (Board of Trustees of University of Illinois, published 2003).

Columns and labels:
ERα wild type (in cell) = biological target: T1, ERα wild type (in cell) (Homo sapiens, UniProt P03372 SEQ:1-595); experiment: cell_activity; HepG2, 10 nM MOX, 2.5 ng plasmid; conditions: chain copies: 2 inferred
T1 chain: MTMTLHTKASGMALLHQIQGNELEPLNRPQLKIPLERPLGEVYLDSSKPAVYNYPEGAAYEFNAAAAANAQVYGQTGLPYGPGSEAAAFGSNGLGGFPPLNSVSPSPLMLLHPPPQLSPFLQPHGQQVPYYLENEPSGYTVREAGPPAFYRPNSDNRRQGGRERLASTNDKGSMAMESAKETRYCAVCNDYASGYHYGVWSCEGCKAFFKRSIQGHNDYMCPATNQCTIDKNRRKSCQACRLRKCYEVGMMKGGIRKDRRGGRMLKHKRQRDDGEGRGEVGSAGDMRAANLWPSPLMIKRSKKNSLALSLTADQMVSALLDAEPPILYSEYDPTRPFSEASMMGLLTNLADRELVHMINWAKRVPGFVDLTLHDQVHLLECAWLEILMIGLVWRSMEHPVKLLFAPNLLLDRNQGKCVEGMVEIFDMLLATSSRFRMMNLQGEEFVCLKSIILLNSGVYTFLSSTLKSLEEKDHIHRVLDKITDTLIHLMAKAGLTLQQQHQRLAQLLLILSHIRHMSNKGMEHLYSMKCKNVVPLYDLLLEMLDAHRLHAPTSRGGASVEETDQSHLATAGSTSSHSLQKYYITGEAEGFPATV
Protocol: Fresh medium and (if any) hormones were added. For MCF-7 and 231 cells, transient transfection was carried out using the Tfx™-20 reagent (Promega; Madison, Wis.) according to the manufacturer's direction with minor changes. Briefly, 1×10⁵ cells were plated in each well of 12-well microplates one day before transfection. A 1:3 ratio of DNA to lipid was used. The DMEM/F12 medium without serum was used as carrier for the DNA-lipid mixture. After 1 hour incubation with the DNA-lipid-DMEM/F12 at 37° C., the cells were transferred to fresh DMEM/F12 supplemented with 10% CD-FBS, 50,000 U/I of penicillin, 50 mg/l streptomycin and hormones. […] The cells subjected to either transfection method were harvested 48 hours post-transfection. Reporter assays were performed by lysing the cells in situ with 250 μl of passive lysis buffer (Promega).

ER3M (in cell) = ER3M (in cell) (Homo sapiens, UniProt P03372 SEQ:1-595, E203W,Q214A,H216G); experiment: cell_activity; HepG2, 10 nM OHT; conditions: chain copies: 2 inferred
ER4.3 (in cell) = ER4.3 (in cell) (Homo sapiens, UniProt P03372 SEQ:1-595, E203W,Q214V,G215R,H216P,N217T); experiment: cell_activity; HepG2, 10 nM OHT; conditions: chain copies: 2 inferred
ER3.1 = ER3.1 (Homo sapiens, UniProt P03372 SEQ:1-595, E203W,Q214N,G215R,D218S); experiment: EMSA; conditions: chain copies: 2 stated; label: labeled
Protocol: (§1) To compare binding of wild type hERα and the ER mutants to the EREs, protein titrations were performed. Increasing amounts of extracts containing equivalent levels of wild-type ER or ER mutants were incubated with the cERE. The ER:ERE complexes were then analyzed by EMSA.
(§2) To test this idea, synthetic probe (SEQ NO: 63) comprising a perfect palindrome with both half sites representing the imperfect ERE half site in the pS2 gene was prepared (FIG. 1A(ii), pS2 PAL).

ER4.3 = ER4.3 (Homo sapiens, UniProt P03372 SEQ:1-595, E203W,Q214V,G215R,H216P,N217T); experiment: EMSA; conditions: chain copies: 2 stated; label: labeled
Protocol: as §1, §2

ER4 = ER4 (Homo sapiens, UniProt P03372 SEQ:1-595, E203W,Q214A,G215R,H216G); experiment: EMSA; conditions: chain copies: 2 stated; label: labeled
Protocol: as §1, §2

ER2 = ER2 (Homo sapiens, UniProt P03372 SEQ:1-595, E203W,Q214A,G215R); experiment: EMSA; conditions: chain copies: 2 stated; label: labeled
Protocol: as §1, §2

ER3M = ER3M (Homo sapiens, UniProt P03372 SEQ:1-595, E203W,Q214A,H216G); experiment: EMSA; modestly lower than the other four mutants; conditions: chain copies: 2 stated; label: labeled
ERα wild type (hERα) = biological target: T2, ERα wild type (hERα) (Homo sapiens, UniProt P03372 SEQ:1-595); experiment: EMSA; negligible binding; conditions: tags: CHO-S whole cell extract; chain copies: 2 stated; label: labeled
T2 chain: T1 chain
Protocol: as §1, §2

B1: ATL2/cERE (dsDNA)
DNA 1: AAGCTTAGGTCACTGTGACCTATCAAGATATCGAGATAGGTCACTGTGACCTATCGACTCTAGA
DNA 2: TCTAGAGTCGATAGGTCACAGTGACCTATCTCGATATCTTGATAGGTCACAGTGACCTAAGCTT
activity (ERα wild type (in cell)): 41 fold induction

B2: ATL4/PAL (dsDNA)
DNA 1: AAGCTTGGGCCACTGTGGCCCATCAAGATATCGAGATGGGCCACTGTGGCCCATCGACAGGAATTCACGGGCCACTGTGGCCCATCAAGATATCGAGATGGGCCACTGTGGCCCATCGACTCTAGA
DNA 2: TCTAGAGTCGATGGGCCACAGTGGCCCATCTCGATATCTTGATGGGCCACAGTGGCCCGTGAATTCCTGTCGATGGGCCACAGTGGCCCATCTCGATATCTTGATGGGCCACAGTGGCCCAAGCTT
activity (ER3M (in cell)): > 80 fold induction | activity (ER4.3 (in cell)): > 80 fold induction

B3: pS2 PAL probe (dsDNA)
DNA 1: AGCTTCTCTATTGGGCCACTGTGGCCCTCATCTGAAGCT
DNA 2: AGCTTCAGATGAGGGCCACAGTGGCCCAATAGAGAAGCT
binding signal (ER3.1): > 30 fold higher affinity than WT | binding signal (ER4.3): > 30 fold higher affinity than WT | binding signal (ER4): > 30 fold higher affinity than WT | binding signal (ER2): > 30 fold higher affinity than WT | binding signal (ER3M): > 30 fold higher affinity than WT | binding signal (ERα wild type (hERα)): > 100 fold weaker than cERE
